The target in test [1] is D3H44 light chain S121K_V133G_N137K_S174R_S176R (Kabat), N-terminal HA or FLAG tag. The experiment in a line: LCCA co-expression, competing light chain m30, L1:L2 DNA 1:3 normalized to 1:1, SPR tag read-out.
Test [2] concerns the target D3H44 light chain V133G_N137K_S174R_S176R (Kabat), N-terminal HA or FLAG tag. Described as above.
Test [3] concerns the target D3H44 light chain Q124E_V133G_S176D_T178E_T180E (Kabat), N-terminal HA or FLAG tag. Briefly: LCCA co-expression, competing light chain m24, L1:L2 DNA 1:3 normalized to 1:1, SPR tag read-out.
The target of test [4] is D3H44 light chain Q124K_V133G_S176R_T178K (Kabat), N-terminal HA or FLAG tag. Briefly: LCCA co-expression, competing light chain m25, L1:L2 DNA 1:3 normalized to 1:1, SPR tag read-out.
The target is the same in test [5]. Briefly: LCCA co-expression, competing light chain m23, L1:L2 DNA 1:3 normalized to 1:1, SPR tag read-out.
The target in test [6] is D3H44 light chain V133G_S176D_T178D_T180E (Kabat), N-terminal HA or FLAG tag. Briefly: LCCA co-expression, competing light chain m24, L1:L2 DNA 1:3 normalized to 1:1, SPR tag read-out.
For test [7], the target named is D3H44 light chain Q124K_V133G_S176R_T178K (Kabat), N-terminal HA or FLAG tag. Briefly: LCCA co-expression, competing light chain m26, L1:L2 DNA 1:3 normalized to 1:1, SPR tag read-out.
Test [8] has as its target D3H44 light chain Q124E_S131T_T178F_T180E (Kabat) with N-terminal HA or FLAG tag. The experiment in a line: LCCA, SPR read-out of light-chain tags; light-chain DNA 1:3 normalized to 1:1; competing light chain m20.
The target in test [9] is D3H44 light chain Q124E_Q160E_T180E (Kabat) with N-terminal HA or FLAG tag. Described as above.
The target of test [10] is D3H44 light chain T178R (Kabat) with N-terminal HA or FLAG tag. The experiment in a line: LCCA, SPR read-out of light-chain tags; light-chain DNA 1:3 normalized to 1:1; competing light chain m19.
Test [11] has the same target. The experiment in a line: LCCA, SPR read-out of light-chain tags; light-chain DNA 1:3 normalized to 1:1; competing light chain m17.
The target of test [12] is D3H44 light chain Q124K_T178R (Kabat) with N-terminal HA or FLAG tag. The test is described as above.
Test [13] concerns the target D3H44 light chain Q124R_Q160K_T178R (Kabat) with N-terminal HA or FLAG tag. The test is described as above.
Test [14] has as its target D3H44 light chain Q124E_T180E (Kabat) with N-terminal HA or FLAG tag. Briefly: LCCA, SPR read-out of light-chain tags; light-chain DNA 1:3 normalized to 1:1; competing light chain m18.
The target in test [15] is D3H44 light chain Q124E_Q160E_T180E (Kabat) with N-terminal HA or FLAG tag. The description is as above.
Test [16] has the same target. The experiment in a line: LCCA, SPR read-out of light-chain tags; light-chain DNA 1:3 normalized to 1:1; competing light chain m16.
For test [17], the target named is D3H44 light chain Q124R_Q160K_T178R (Kabat) with N-terminal HA or FLAG tag. Briefly: LCCA, SPR read-out of light-chain tags; light-chain DNA 1:3 normalized to 1:1; competing light chain m22.
Test [18] has as its target tissue factor (TF) antigen (UniProt P13726). Briefly: SPR KD against wild-type D3H44 Fab; * estimated value (estimated wild-type KD […]).
Test [19] shares this target. Briefly: SPR (ProteOn), Fab captured on anti-penta-His, TF analyte, 1:1 fit; * estimated from a Fab differing only in the L chain tag.
Test [20] shares this target. The experiment in a line: SPR KD against wild-type D3H44 Fab (reference KD 0.157 nM).
The target is the same in test [21]. Briefly: SPR (ProteOn), Fab captured on anti-penta-His, TF analyte, 1:1 fit.
For test [22] the target is unchanged. Briefly: SPR, Fab captured on anti-penta-His surface, TF as analyte, 1:1 fit; Fab batch C. A general note: In SPR one partner is held on a chip, and binding of the other changes the refractive index at the surface.
For test [23] the target is unchanged. The experiment in a line: SPR, Fab captured on anti-penta-His surface, TF as analyte, 1:1 fit; estimated value, from a Fab that differs only in the L chain tag.
The target is the same in test [24]. The experiment in a line: SPR, Fab captured on anti-penta-His surface, TF as analyte, 1:1 fit; estimated value, from a Fab that differs only in the L chain tag; against wild-type D3H44 Fab.
For test [25] the target is unchanged. The experiment in a line: SPR, Fab captured on anti-penta-His surface, TF as analyte, 1:1 fit; Fab batch C; against wild-type D3H44 Fab.
Test [26] shares this target. The experiment in a line: vs wild-type D3H44 Fab (KD 0.157 nM); SPR, Fab captured on anti-penta-His, TF as analyte; batch C (+).
The target is the same in test [27]. The experiment in a line: SPR, Fab captured on anti-penta-His, TF as analyte, 1:1 fit; batch C (+).

Here are results for 19 substances from US11306156.

Usually Kd stands for the constant that tells how readily two partners part at equilibrium.

For the substance “D3H44 Fab heavy chain L124E_A125S_H172T_K228D (Kabat), C-terminal ABD2-His6 tag”, in test [1], the H1L1:H1L2 normalized median ratio was 27 of 100 and the H1L1:H1L2 normalized median scalar value ln(r1/f1) was -0.97.
On to “D3H44 Fab heavy chain L124E_H172T (Kabat), C-terminal ABD2-His6 tag”, for which, in test [2], the H1L1:H1L2 normalized median ratio was 53 of 100 and the H1L1:H1L2 normalized median scalar value ln(r1/f1) came out at 0.12.
On to “D3H44 Fab heavy chain L124E_L143D_K145M (Kabat), C-terminal ABD2-His6 tag”, for which the H1L1:H1L2 normalized median ratio is 17 of 100 in test [3] and 83 of 100 in test [4]. Also, the H1L1:H1L2 normalized median scalar value ln(r1/f1) in [4] was determined as 1.59.
Consider “D3H44 Fab heavy chain L124E_L143D_K145T (Kabat), C-terminal ABD2-His6 tag”, for which the H1L1:H1L2 normalized median ratio in test [3] is 21 of 100; in [5], 81 of 100; in [4], 79 of 100. Also, the values for the H1L1:H1L2 normalized median scalar value ln(r1/f1) in test [5] and in test [4] were 1.44 and 1.31, respectively.
Turning to “D3H44 Fab heavy chain L124E_L143E_K145M (Kabat), C-terminal ABD2-His6 tag”, the H1L1:H1L2 normalized median ratio in [6] is 37 of 100; in test [5], 88 of 100; in test [7], 63 of 100. Besides, the H1L1:H1L2 normalized median scalar value ln(r1/f1) in [5] is 1.95; in [7] it was 0.55.
In the same order, the values of “D3H44 Fab heavy chain L124E_L143E_K145T (Kabat), C-terminal ABD2-His6 tag” are 38 of 100, 89 of 100, 62 of 100, 2.08 and 0.43.
Turning to “D3H44 Fab heavy chain L124R_A125R_H172R (Kabat), C-terminal ABD2-His6 tag”, in test [1], the H2L2:H2L1 normalized median ratio is 5 of 100.
In the case of “D3H44 Fab heavy chain L124R_D146N_Q179K (Kabat), C-terminal ABD2-His6 tag”, the H2L2:H2L1 normalized median ratio in [3] is 84 of 100; in [4], 16 of 100.
On to “D3H44 Fab heavy chain L124R_H172R (Kabat), C-terminal ABD2-His6 tag”, for which the H2L2:H2L1 normalized median ratio in [2] was 8 of 100.
On to “D3H44 Fab heavy chain L124R_S186K (Kabat), C-terminal ABD2-His6 tag”, for which the figures for the H2L2:H2L1 normalized median ratio in test [6], in [5] and in test [7] were 93 of 100, 24 of 100 and 7 of 100, respectively.
Consider “D3H44 Fab heavy chain S186K (Kabat) with C-terminal ABD2-His6 tag”, for which the H2L2:H2L1 normalized median ratio in test [8] is 96%; in test [9], 81%; in [10], 4%; in test [11] it was 9%; in [12], 17%; in test [13], 19%. In addition, the H2L2:H2L1 normalized median ratio came out at 96% in test [14], 91% in test [15], 83% in test [16] and 4% in test [17].
Consider “D3H44 Fab heterodimer, H: L143E_K145T_Q179D, L: Q124R_Q160K_T178R (H1L1 Fab of LCCA set 9623)”, for which, in test [18], the Change in KD with respect to wild type (-(log(KD design) - log(KD wt))) is 0.39. The Kd in [19] was 0.06 nM.
As for “D3H44 Fab heterodimer, H: L143E_K145T_Q179D, L: Q124R_T178K (H1L1 Fab of LCCA set 9629)”, the Change in KD with respect to wild type (-(log(KD design) - log(KD wt))) in [18] is 0.12. Besides, in test [19], the Kd was 0.12 nM.
For the substance “D3H44 Fab heterodimer, H: L143E_K145T_Q179E, L: Q124R_T178R (H1L1 Fab of LCCA sets 9663, 9666, 9667, 9671, 9675, 9679 and 9682)”, the Change in KD with respect to wild type (-(log(KD design) - log(KD wt))) in test [20] and in [18] was -0.23 each time. Also, the dissociation constant Kd in [21] and in [19] was 0.27 nM in each case.
Turning to “D3H44 H1L1 Fab heterodimer of LCCA Set # 9626 (H1 L143E_K145T_Q179D; L1 Q124R_T178K)”, the dissociation constant Kd in test [22] and in [23] was 0.12 nM throughout. Moreover, the change in median KD compared to wild type, -(log(KD design)-log(KD wt)) in [24] and in [25] was 0.12 throughout.
Take “D3H44 H1L1 Fab heterodimer of LCCA Set # 9657 (H1 L143E_K145T_Q179E; L1 Q124R_T178K)”: the Kd in test [22] and in test [23] was 0.19 nM each time. The change in median KD compared to wild type, -(log(KD design)-log(KD wt)) in [24] and in [25] was -0.08 in each case.
Regarding “H1L1 Fab heterodimer of LCCA set 9620 (D3H44 Fab, H1 L143E_K145T_Q179D, L1 Q124R_Q160K_T178R)”, in test [26], the change in median KD compared to wild type, -(log(KD design)-log(KD wt)) turned out to be 0.39. In test [27], this substance displayed a Kd of 0.06 nM.
In the same order, the values of “H1L1 Fab heterodimer of LCCA set 9654 (D3H44 Fab, H1 L143E_K145T_Q179E, L1 Q124R_Q160K_T178R)” are 0.02 and 0.15 nM.
The corresponding values for “H1L1 Fab heterodimer of LCCA sets 9801 and 9802 (D3H44 Fab, H1 Q179R, L1 Q124E_Q160E_T178E)” are 0.16 and 0.11 nM.
